# Measured values as given in article PMC6062542, “Structural and Biochemical Characterization of AaL, a Quorum Quenching Lactonase with Unusual Kinetic Properties” (Scientific Reports, 2018).
# T1: AaL (Alicyclobacillus acidoterrestris, UniProt T0BMH6)
# T1 construct: gene K1I37_05175; codon-optimized synthetic gene; N-terminal Strep tag (WSHPQFEK) + TEV site (ENLYFQS), tag cleaved with TEV; homodimer
# T1 sequence (T0BMH6 1-282): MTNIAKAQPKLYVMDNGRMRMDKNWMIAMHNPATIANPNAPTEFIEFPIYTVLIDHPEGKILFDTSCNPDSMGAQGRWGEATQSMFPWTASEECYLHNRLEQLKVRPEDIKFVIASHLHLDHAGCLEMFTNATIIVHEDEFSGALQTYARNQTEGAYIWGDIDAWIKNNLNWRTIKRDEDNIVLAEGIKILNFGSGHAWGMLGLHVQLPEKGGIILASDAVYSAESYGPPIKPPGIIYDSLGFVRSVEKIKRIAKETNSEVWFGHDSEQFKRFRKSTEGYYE
# B1: AaL (Alicyclobacillus acidoterrestris ATCC 49025) (protein)
# chain: T1 sequence (T0BMH6 1-282)
# notes: codon-optimized synthetic gene; N-terminal Strep tag (WSHPQFEK) + TEV site (ENLYFQS), tag cleaved with TEV; homodimer
# How the values were obtained:
# AaL = target: T1, AaL; test: X-ray crystal structure, […] Å, crystal soak; format: binding; conditions: soaked 10 min with 20 mM C6-AHL; active site, two cobalt cations; modelled occupancy 0.7
# purified protein [1] = substrate: CCCC1CCC(=O)O1; test: purified protein; format: biochemical, Alicyclobacillus acidoterrestris; conditions: 2.5 mM Bicine pH 8.3, 150 mM NaCl, 0.2 mM cresol purple, 0.5% DMSO, 0.2 mM CoCl2, room temperature
# purified protein [2] = substrate: CCCCCC1CCCC(=O)O1; test: purified protein; format: biochemical, Alicyclobacillus acidoterrestris; conditions: 2.5 mM Bicine pH 8.3, 150 mM NaCl, 0.2 mM cresol purple, 0.5% DMSO, 0.2 mM CoCl2, room temperature
# purified protein [3] = substrate: O=C1CCCCO1; test: purified protein; format: biochemical, Alicyclobacillus acidoterrestris; conditions: 2.5 mM Bicine pH 8.3, 150 mM NaCl, 0.2 mM cresol purple, 0.5% DMSO, 0.2 mM CoCl2, room temperature
# purified protein [4] = substrate: O=C1CCCO1; test: purified protein; format: biochemical, Alicyclobacillus acidoterrestris; conditions: 2.5 mM Bicine pH 8.3, 150 mM NaCl, 0.2 mM cresol purple, 0.5% DMSO, 0.2 mM CoCl2, room temperature
Molecule,"X-ray crystal structure, 1.8 Å, crystal soak (AaL)",Km (purified protein [1]),Km (purified protein [2]),kcat (purified protein [2]),kcat/Km (purified protein [2]),Km (purified protein [3]),kcat (purified protein [3]),kcat/Km (purified protein [3]),Km (purified protein [4]),kcat (purified protein [4]),kcat/Km (purified protein [4])
CCCCCC(=O)N[C@H]1CCOC1=O [C6-AHL],the structure of AaL bound to C6-AHL could be solved,–,–,–,–,–,–,–,–,–,–
B1,–,36.9 ± 8.9 µM,18.5 ± 0.4 µM,8.4 ± 0.6 s⁻¹,450000 ± 100000 M⁻¹ s⁻¹,18.7 ± 0.4 µM,8.4 ± 0.4 s⁻¹,450000 ± 90000 M⁻¹ s⁻¹,171.0 ± 36.1 µM,23.5 ± 1.7 s⁻¹,140000 ± 30000 M⁻¹ s⁻¹
